Experimental data as given in publication PMC3728988, “Kinetic mechanism of the dimeric ATP sulfurylase from plants” (Bioscience Reports, 2013).

T1: soybean ATP sulfurylase isoform 1 (GmATPS1) (Glycine max, UniProt Q8SAG1)
T1 construct: homodimer
T1 sequence (Q8SAG1 49-462): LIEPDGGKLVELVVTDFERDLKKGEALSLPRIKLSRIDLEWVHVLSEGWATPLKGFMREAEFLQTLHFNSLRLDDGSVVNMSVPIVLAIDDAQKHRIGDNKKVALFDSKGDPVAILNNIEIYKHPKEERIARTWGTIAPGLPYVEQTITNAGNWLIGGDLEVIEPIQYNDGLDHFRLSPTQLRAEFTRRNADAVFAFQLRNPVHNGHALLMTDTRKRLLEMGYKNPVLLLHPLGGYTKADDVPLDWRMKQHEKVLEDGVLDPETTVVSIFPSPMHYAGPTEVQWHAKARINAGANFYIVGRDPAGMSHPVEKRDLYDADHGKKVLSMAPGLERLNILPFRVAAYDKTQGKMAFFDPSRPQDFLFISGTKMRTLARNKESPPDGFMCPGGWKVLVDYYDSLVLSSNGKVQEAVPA

B1: soybean ATP sulfurylase isoform 1 (GmATPS1) (Glycine max) (protein)
chain: T1 sequence (Q8SAG1 49-462)

What was measured:
[1] = target: T1, soybean ATP sulfurylase isoform 1 (GmATPS1); test: dead-end inhibition kinetics, coupled spectrophotometric assay of APS synthesis; type: biochemical
purified protein [2] = substrate: Nc1ncnc2c1ncn2[C@@H]1O[C@H](COP(=O)(O)OP(=O)(O)OP(=O)(O)O)[C@@H](O)[C@H]1O; test: purified protein; conditions: Mg2+ binds first in the forward reaction
purified protein [3] = substrate: O=S(=O)(O)O; test: purified protein; conditions: ATP, Mg2+ binds after ATP; chlorate competes with it

Molecule	Ki [1] [µM]	Km (purified protein [2]) [µM]	Km (purified protein [3])
[O-][Cl+2]([O-])O [chlorate]	103 ± 19		
B1		221 ± 41	1,030±280 μM
